# B1: ATXN2 peptide 911-926 (Ataxin-2), 16-mer library wild type / PABPC1 PABC (PABPC1 PABC domain, residues 544-623) (parent)
# chain 1: KSTLNPNAKEFNPRSF
# chain 2: PLTASMLASAPPQEQKQMLGERLFPLIQAMHPTLAGKITGMLLEIDNSELLHMLESPESLRSKVDEAVAVLQAHQAKEAA
# B2: PEX5 peptide 110-125 (Peroxisomal targeting signal 1 receptor), 16-mer library wild type / PEX14 Pex14 (PEX14 PEX14, residues 16-84) (parent)
# chain 1: ADLALSENWAQEFLAA
# chain 2: TPGSENVLPREPLIATAVKFLQNSRVRQSPLATRRAFLKKKGLTDEEIDMAFQQSGTAADEPSSLGPAT
# Variants of: B1
# Test: proteomic peptide phage display deep mutational scan (ProP-PD DMS): M13 P8 16-mer library selected against immobilised GST-tagged bait for four days (rounds), NGS of the eluted pools per day and pseudo-replica
# Settings: with PABPC1 PABC (PABPC1 PABC domain, residues 544-623); bait immobilised on MaxiSorp plates (10 µg), library pre-cleared on GST, 2 h binding at 4 °C, five washes; one round per day, days 1-4; value from days 2 and 3; scale: average fractional NGS count over selection days 2 and 3
row,Variant,screen value
1,chain 1 N7Q,0.000449
2,chain 1 N7H,0.000328
3,chain 1 N7T,1.57e-05
4,chain 1 N7R,5.23e-05
5,chain 1 N7W,0
6,chain 1 N7V,0.000181
7,chain 1 N7A,0.000105
8,chain 1 N7Y,5.67e-05
9,chain 1 N7L,0.000441
10,chain 1 N7G,0
11,chain 1 L4F,0
12,chain 1 L4Y,0
13,chain 1 L4M,0.000137
14,chain 1 A8R,0
15,chain 1 A8V,0.000222
16,chain 1 A8I,0
17,chain 1 A8S,0
18,chain 1 S2V,0.000881
19,chain 1 S2F,0.000554
20,chain 1 S2D,0.000114
21,chain 1 S2T,0.00018
22,chain 1 S2E,0.000105
23,chain 1 S2Y,0.00178

row,Variant,screen value
1,chain 1 S2M,0.00187
2,chain 1 S2P,0.00164
3,chain 1 S2A,0.000338
4,chain 1 S2H,0.00026
5,chain 1 S2N,0
6,chain 1 S2G,0.000237
7,chain 1 S2L,5.2e-05
8,chain 1 S2I,0.000118
9,chain 1 N12S,0.000112
10,chain 1 N12E,0.000774
11,chain 1 N12A,0.00161
12,chain 1 N12D,0.00012
13,chain 1 N12Q,0.000365
14,chain 1 N12T,0.000331
15,chain 1 N12I,0.000365
16,chain 1 N12K,0.000122
17,chain 1 N12F,0.000678
18,chain 1 N12W,0.00202
19,chain 1 N12H,0.000518
20,chain 1 N12P,0
21,chain 1 N12G,0.000277
22,chain 1 N12L,0
23,chain 1 N12V,0.00267

row,Variant,screen value
1,chain 1 N12M,0.00106
2,chain 1 T3S,0
3,chain 1 T3Q,0
4,chain 1 T3G,0.000528
5,chain 1 T3W,0.000105
6,chain 1 T3K,0
7,chain 1 T3V,0.00143
8,chain 1 T3H,8.48e-05
9,chain 1 T3E,0.00159
10,chain 1 T3I,0.00112
11,chain 1 T3Y,3.57e-05
12,chain 1 T3M,0.000543
13,chain 1 T3F,0.000481
14,chain 1 S15L,0.00242
15,chain 1 S15H,0.000677
16,chain 1 S15Q,0
17,chain 1 S15V,0.000546
18,chain 1 S15N,0.000583
19,chain 1 S15T,4.17e-05
20,chain 1 S15G,0
21,chain 1 S15F,0.000136
22,chain 1 S15P,0.000243
23,chain 1 S15D,0

row,Variant,screen value
1,chain 1 S15A,0.000153
2,chain 1 S15I,0.000221
3,chain 1 S15W,5.73e-05
4,chain 1 S15E,0.000122
5,chain 1 S15Y,0.000151
6,chain 1 N5A,0
7,chain 1 N5Q,0
8,chain 1 N5D,0
9,chain 1 N5S,2.4e-05
10,chain 1 P6A,0
11,chain 1 P6Y,0
12,chain 1 P6V,0.00101
13,chain 1 P6I,0.000875
14,chain 1 P6L,0.000389
15,chain 1 P6H,4.64e-05
16,chain 1 R14E,0.000187
17,chain 1 R14Q,0.00156
18,chain 1 R14M,9.46e-05
19,chain 1 R14P,0.00013
20,chain 1 R14A,0.00158
21,chain 1 R14G,0.0017
22,chain 1 R14S,0.00103
23,chain 1 R14V,0.000569

row,Variant,screen value
1,chain 1 R14N,0.000117
2,chain 1 R14W,0.00286
3,chain 1 R14F,0.000523
4,chain 1 R14T,0.00309
5,chain 1 R14H,0.000471
6,chain 1 R14Y,0.000722
7,chain 1 F11V,0
8,chain 1 F11W,0.000158
9,chain 1 F11Y,0.000235
10,chain 1 F16L,0.00151
11,chain 1 F16A,0.00041
12,chain 1 F16M,0.000149
13,chain 1 F16Y,0.000515
14,chain 1 F16H,0.000158
15,chain 1 F16N,0.000241
16,chain 1 F16D,0.000103
17,chain 1 F16S,0.000134
18,chain 1 F16V,0.000892
19,chain 1 F16I,0.000285
20,chain 1 F16W,8.6e-05
21,chain 1 F16T,0.000108

# Variants of: B2
# Test: as above
# Settings: with PEX14 Pex14 (PEX14 PEX14, residues 16-84); bait immobilised on MaxiSorp plates (10 µg), library pre-cleared on GST, 2 h binding at 4 °C, five washes; one round per day, days 1-4; value from days 2 and 3; scale: average fractional NGS count over selection days 2 and 3
row,Variant,screen value
1,chain 1 A10D,0
2,chain 1 A10S,0.000299
3,chain 1 A10P,0.000417
4,chain 1 A10M,0
5,chain 1 A10Q,0
6,chain 1 A10N,0.000118
7,chain 1 A15N,0.000268
8,chain 1 A15G,9.87e-05
9,chain 1 A15T,0.000397
10,chain 1 A15S,0
11,chain 1 A15Q,0
12,chain 1 A15Y,9.07e-05
13,chain 1 A15E,0.000302
14,chain 1 E12D,0.000116
15,chain 1 E12R,9.56e-05
16,chain 1 E12K,0.000191
17,chain 1 E12Q,0.000147
18,chain 1 E12A,0.000448
19,chain 1 E12N,0
20,chain 1 A4M,0.000358
21,chain 1 A4D,0.000198
22,chain 1 A4G,0
23,chain 1 A4Y,0.000159
24,chain 1 A4E,0.000166
25,chain 1 A4S,9.07e-05
26,chain 1 A1H,0
27,chain 1 A1K,0.00027

row,Variant,screen value
1,chain 1 A1V,0.000338
2,chain 1 A1L,0.000249
3,chain 1 A1W,0
4,chain 1 A1R,0.00015
5,chain 1 E7Q,0.000175
6,chain 1 D2F,0
7,chain 1 D2M,0.000156
8,chain 1 D2S,0
9,chain 1 D2V,0.000407
10,chain 1 D2I,0.000253
11,chain 1 D2G,0.000331
12,chain 1 L3R,0
13,chain 1 L3V,0.000442
14,chain 1 L3S,0.000293
15,chain 1 L3E,0.000345
16,chain 1 L5I,9.07e-05
17,chain 1 L5R,0.000218
18,chain 1 L5E,0
19,chain 1 L5N,9.07e-05
20,chain 1 L5D,0
21,chain 1 L5F,0.000301
22,chain 1 F13P,0
23,chain 1 F13S,9.56e-05
24,chain 1 F13K,0
25,chain 1 F13G,0
26,chain 1 F13T,0.0002
27,chain 1 F13L,0.000183

# Source: PMC12102759
